The text below walks through data of PMC10377000, “LSPR-Based Aptasensor for Rapid Urinary Detection of NT-proBNP”.

The data set addresses NT-proBNP (UniProt P16860). Briefly: AuNP aggregation (LSPR, A750/A521), Hill fit; diluted urine; Hill n = 0.0751; NT-proBNP in 5 mM PBS pH 7.4; aptamer in 10 mM Tris-HCl, 0.2 mM EDTA (0.25 uM in assay); 15 min incubation; then citrate AuNPs and 40 uL 0.2 M NaCl; 25 C stated for CD sample only. To be noted: protein: commercial; antiparallel G4 proposed from CD.

Chain of NT-proBNP (P16860 27-134): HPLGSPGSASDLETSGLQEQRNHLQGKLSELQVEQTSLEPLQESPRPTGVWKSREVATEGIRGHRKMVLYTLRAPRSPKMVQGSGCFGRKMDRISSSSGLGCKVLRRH

B1: NT-proBNP aptamer (structured_DNA)
DNA: GGCAGGAAGACAAACAGGTCGTAGTGAAACTGTCCACCGTAGACCGGTTATCTGTTGGTCTGTGGTGCTGT
Take B1: the Kd turned out to be 2.71 nM.

The Kd is the constant that tells how readily two partners part at equilibrium. Read a high Kd as weaker binding.
